According to paper PMC6351562, “Structure, function, and inhibition of drug reactivating human gut microbial β-glucuronidases” (Scientific Reports, 2019):

System: O=C(O)[C@H]1O[C@@H](Oc2ccc([N+](=O)[O-])cc2)[C@H](O)[C@@H](O)[C@@H]1O
Assay: purified protein, by the assay type
Conditions: other: pNPG as substrate, optimal pH 5.0, 37 °C

**Q.** What does the source list for “Bacteroides fragilis GUS (BfGUS) (Bacteroides fragilis NCTC 9343)”?
**A.** Km: 580 ± 90 µM; kcat: 22 s⁻¹; kcat/Km: 39000 M⁻¹ s⁻¹
